For series [1], the system named is HepG2 cells. The experiment in a line: apoB and apolipoprotein expression and secretion, immunoprecipitation and Western blot. Type of series: cell-based, human. The method, then:
During experiments in which HepG2 cells were treated with human recombinant resistin (Calbiochem, UK) the media was changed to 1% FBS-containing DMEM. […] In separate experiments, cells were treated with the fatty acid, oleate (100 μM) (Sigma, ON) for 24 hours, with or without human resistin (50 ng/mL) for 24 hours. In other experiments, cells were treated with the 10 μM lactacystin (Cayman Chemical, Ann Arbor, Mich.) for 24 hours to assess intracellular proteosome-dependent apoB protein degradation.
Horseradish peroxidase-conjugated antibodies (BioRad, Hercules, Calif.) were used as secondary antibodies.
All of the experiments to follow were performed three times and representative results are shown. […] Immunoprecipitation on cell lysates and media, followed by Western blots to detect the cellular expression and secretion of human apoB protein were then performed. The constitutively expressed cellular proteins, beta-actin and albumin were used as internal immunoblot controls to confirm equal protein loading in the apoB immunoblots of cell lysates and media, respectively. […] Treatment with 25 ng/mL resistin further stimulated apoB secretion by approximately 250% compared with untreated cells (FIG. 1A).
(A western blot detects proteins with antibodies after separation by electrophoresis.)

In series [2] the test system is HepG2 cells. The experiment in a line: Oil-Red-O staining of neutral lipid. Type of series: cell-based, human. The note with it: 50 ng/mL, 24 hours, versus untreated. The method, then:
Cells were stained with Oil-Red-0 to examine the amount of neutral lipid accumulation in the cells as described by Ferre et al. (Am. J. Physiol Gastrointest. Liver Physiol. 296:G553-G562). Briefly, dishes were washed with cold phosphate-buffered saline and fixed in 10% neutral formalin. After 2 changes of propylene glycol, Oil-Red-0 was added with agitation for 7 minutes, followed by washing in 85% propylene glycol. The dishes were then rinsed in distilled water and counterstained with hematoxylin. For each dish, 3 images were photographed, and a representative image is shown.
To determine if the deleterious effects of human resistin extend not only to increased secretion of apoB-containing lipoproteins by human hepatocytes, but also to increased hepatocyte lipid content, as the two processes frequently occur together in such conditions as obesity, insulin resistance and type 2 diabetes mellitus. Oil-Red-O/hematoxylin staining of HepG2 cells either untreated, treated with 100 μM oleate for 24 hours as a positive control, or treated with 50 ng/mL human resistin for 24 hours was performed. […] The increased cell neutral lipid content with resistin treatment was similar in magnitude to that observed with 100 μM oleate treatment.

In a further series the test system is human PCSK9. The series can be described thus: PCSK9 siRNA studies in HepG2 cells. It is filed as cell-based. The method, then:
Four siRNAs targeting human PCSK9 synthesized by Qiagen (Qiagen, MD) were purchased and tested. The siRNAs were transfected into HepG2 cells at a final concentration of 10 nM, using HiPerFect transfection reagent (Qiagen, MD) at 0.5% final volume. The siRNA that produced the maximum decrease in PCSK9 mRNA and protein expression in HepG2 cells (70% knockdown by Western blot 24 hours post-transfection) was chosen for further experiments. As a negative control, HepG2 cells were transfected with a scrambled siRNA control vector in HiPerFect (both Qiagen, MD). As a positive control, HepG2 cells were transfected with siRNA targeting the constitutively expressed GAPDH gene, using HiPerFect (Qiagen, MD). Western blots against PCSK9 (Caymen Chemicals, MI), LDL receptor (Fitzgerald International, CA) and GAPDH (Sigma, Mo.) were done in control untreated HepG2 cells, cells transfected with the optimal PCSK9 siRNA (Qiagen, MD) and cells treated with human resistin (50 ng/mL) plus PCSK9 siRNA 24 hours post-transfection.
The extent of the role of PCSK9 in the resistin mediated reduction in hepatocyte LDL receptor levels was examined. […] PCSK9 protein levels in hepatocytes were next assessed in response to PCSK9 siRNA administration, with and without resistin. […]

Series [3] deals with primary mouse hepatocytes from wildtype littermates. The series can be described thus: LDL receptor and PCSK9 protein in wild-type mouse hepatocytes. It is filed as cell-based. The note with it: wild-type mice hepatocytes, 50 ng/mL, 24 hours. The method, then: Animal ethics approval was received for the mouse protocols to follow. Primary mouse hepatocytes from PCSK9 knockout mice (C57Bl/6 background) or their wildtype littermates were isolated by perfusing the liver via the hepatic portal vein with a 5 mM EGTA in Leffert's Buffer (10 mM Hepes; 3 mM KCl, 0.13 M NaCl, 1 mM NaH2PO4, 10 mM D-glucose) followed by a 0.3 mg/ml collagenase in 0.0279% CaCl2. Cells were then filtered through a 70 uM nylon strainer and centrifuged at 760 rpm for 5 min. The cells were then passed through a CHRM gradient (Invitrogen, NC). Viability of cells ranged from 80 to 95%. […] Mouse LDL receptor and PCSK9 protein in cell lysates were measured via immunoblotting, as described above, using the following primary antibodies: mouse LDL receptor (abcam, MA), mouse PCSK9 (abcam, MA) and mouse GAPDH (Cell Signaling, MA). […]
To then more directly quantify the role of PCSK9 in the resistin mediated reduction in hepatocyte LDL receptor levels, hepatocytes isolated and cultured from wild-type mice were treated with resistin, and compared to resistin-treated hepatocytes from PCSK9 knockout mice.

B1: human resistin: recombinant lyophilized purified human resistin (Calbiochem); cysteine-rich cytokine, single 12 kDa band (protein)
chain: KTLCSMEEAINERIQEVAGSLIFRAISSIGLECQSVTSRGDLATCPRGFAVTGCTCGSACGSWDVRAETTCHCQCAGMDWTGARCCRVQP
As for B1, in the series on HepG2 cells [1] (10 ng/mL resistin, 24 hours), the “increase of hepatic apoB cellular protein expression and secretion versus control, untreated HepG2 cells” value was roughly 100%. Further, in the series on HepG2 cells [1] (25 ng/mL resistin, 24 hours), the “stimulation of apoB secretion compared with untreated cells” value is “approximately 250%”. The “effect on the stimulatory effect of oleate on hepatic cellular apoB expression and secretion” value in the series with HepG2 cells [1] (50 ng/mL resistin added to 100 μM oleate, 24 hours) is on record as “doubled”. In addition, the “apoB expression or secretion on addition to lactacystin” value in the series with HepG2 cells [1] (50 ng/mL resistin added to lactacystin 10 μM, 24 hours) is on record as “did not further increase”. Besides, in the series on HepG2 cells [1] (50 ng/mL resistin, 24 hours), the “increase in cellular apoB protein expression versus untreated cells” value is listed as “approximately 3500%” and the “increase in secreted apoB versus untreated cells” value is reported as 1000%. Also, the “apoB secretion above untreated HepG2 cells” value with HepG2 cells [1] (50 ng/mL resistin, after 48 hours, no restimulation) is on record as 100%. Moreover, in the series with HepG2 cells [1] (50 ng/mL resistin, time course), the “earliest time of increase in apoB protein secretion into HepG2 cell media” value was found to be 4 h and the “time of maximal cumulative effect on apoB protein expression in the media” value was found to be 24 h. In addition, in the series with HepG2 cells [1] (50 ng/mL, 24 hour), the “increase in secretion of apoB protein by HepG2 cells” value is recorded as “approximately 8 fold”. Also, in the series with HepG2 cells [1] (50 ng/mL, versus untreated), the “apoCI or CIII protein expression” value is “no difference” and the “expression of secreted apoE” value is on record as “increase”. Further, the “cellular apoB expression and secretion versus that produced by 50 ng/mL resistin” value with HepG2 cells [1] (100 ng/mL resistin, 24 hours) is on record as “reduced cellular apoB expression markedly”. Also, the “hepatocyte neutral lipid content” value with HepG2 cells [2] is reported as “clear increase”. For the same molecule, the “effect on LDL receptor elevation induced with PCSK9 siRNA” value with human PCSK9 (resistin 50 ng/mL plus PCSK9 siRNA) is on record as “reversed”. Besides, in the series with human PCSK9 (resistin plus PCSK9 siRNA), the “cellular PCSK9 levels compared with siRNA treatment alone” value is “enhanced”. Also, in series [3], the PCSK9 levels result was “increased PCSK9 levels significantly” and the “decrease in LDL receptor protein levels compared with untreated hepatocytes” value came out at 40%.

The values are drawn from patent publication US20130252987A1, “METHOD OF REGULATING PLASMA LIPOPROTEINS” (MCMASTER UNIVERSITY, priority 2010, published 2013).
